According to PMC3873893:

Target: GST-WWCA (bovine N-WASP WWCA, A403-D505) (bovine) (UniProt Q95107)
Sequence of UniProt Q95107 (Q95107 403-505): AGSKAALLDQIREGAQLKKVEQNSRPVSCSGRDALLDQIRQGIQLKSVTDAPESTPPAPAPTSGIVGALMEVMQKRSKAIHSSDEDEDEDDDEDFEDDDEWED

barbed-end rate of filaments tethered to WWCA nanofibers, 1 μM actin, 1 mM Mg^2+: 21.4 subunits/s
Substance: rabbit skeletal muscle actin (Mg-ATP actin; filament barbed ends) (from UniProt P68135 1-377) (natural protein)
